“Also recorded” adds a separate entry of the source.
Molecular target: T1, soluble recombinant human CD39 protein (Homo sapiens, UniProt P49961)
T1 construct: made in house; host or cells: CHO cells
T1 sequence (P49961 with tags, fused parts or gaps): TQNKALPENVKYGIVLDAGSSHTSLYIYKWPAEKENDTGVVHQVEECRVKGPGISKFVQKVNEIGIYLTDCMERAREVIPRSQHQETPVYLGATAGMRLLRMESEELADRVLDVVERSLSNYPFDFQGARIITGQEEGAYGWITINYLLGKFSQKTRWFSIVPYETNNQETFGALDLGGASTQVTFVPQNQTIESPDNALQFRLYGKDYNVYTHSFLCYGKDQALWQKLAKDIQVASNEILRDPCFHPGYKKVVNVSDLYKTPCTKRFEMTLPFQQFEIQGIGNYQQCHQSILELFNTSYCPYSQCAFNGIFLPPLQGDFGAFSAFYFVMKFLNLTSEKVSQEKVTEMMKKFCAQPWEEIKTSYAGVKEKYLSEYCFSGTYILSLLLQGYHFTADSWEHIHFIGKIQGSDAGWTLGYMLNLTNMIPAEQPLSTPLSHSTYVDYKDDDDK
Experiment: Inhibition of the enzymatic activity of soluble CD39 (Cell Titer Glo)
Type: biochemical
Description: The inhibition by antibodies of the enzymatic activity of soluble CD39 protein produced was evaluated using Cell Titer Glo™ (Promega, reference G7571) that allows assessment of ATP hydrolysis through use of a reagent that generates a luminescent signal proportional to the amount of ATP present. In this way, inhibition of the soluble-CD39-meidatd ATP hydrolysis can be assessed. Briefly, dose ranges of anti-CD39 antibodies from 100 μg/ml to 6×10^−3 μg/ml were incubated with 400 ng/ml of soluble recombinant human CD39 protein having the amino acid sequence described in the Methods section (SEQ ID NO: 39), for 1 h at 37° C. 20 μM ATP was added to the plates for 30 additional minutes at 37° C. before addition of CTG (Cell Titer Glo) reagent. Emitted light was quantified using an Enspire™ luminometer after a short incubation period of 5 min in the dark. Anti-CD39 antibody efficacy was determined by comparing emitted light in presence of antibody with ATP alone (maximal light emission) and ATP together with soluble CD39 protein (minimal light emission).

B1: I-394: anti-CD39 antibody, VH SEQ ID NO: 3, VL SEQ ID NO: 4; heavy and light chains SEQ ID NOS: 37 and 38 (antibody)
heavy: EVQLQQSGPELVKPGASVKMSCKASGYTFTDYNMHWVKQSHGRTLEWIGYIVPLNGGSTFNQKFKGRATLTVNTSSRTAYMELRSLTSEDSAAYYCARGGTRFAYWGQGTLVTVSAASTKGPSVFPLAPSSKSTSGGTAALGCLVKDYFPEPVTVSWNSGALTSGVHTFPAVLQSSGLYSLSSVVTVPSSSLGTQTYICNVNHKPSNTKVDKRVEPKSCDKTHTCPPCPAPEAEGAPSVFLFPPKPKDTLMISRTPEVTCVVVDVSHEDPEVKFNWYVDGVEVHNAKTKPREEQYNSTYRVVSVLTVLHQDWLNGKEYKCKVSNKALPSSIEKTISKAKGQPREPQVYTLPPSREEMTKNQVSLTCLVKGFYPSDIAVEWESNGQPENNYKTTPPVLDSDGSFFLYSKLTVDKSRWQQGNVFSCSVMHEALHNHYTQKSLSLSPGK
light: DIVLTQSPASLAVSLGQRATISCRASESVDNFGVSFMYWFQQKPGQPPNLLIYGASNQGSGVPARFRGSGSGTDFSLNIHPMEADDTAMYFCQQTKEVPYTFGGGTKLEIKRTVAAPSVFIFPPSDEQLKSGTASVVCLLNNFYPREAKVQWKVDNALQSGNSQESVTEQDSKDSTYSLSSTLTLSKADYEKHKVYACEVTHQGLSSPVTKSFNRGEC
modifications: Chimeric homo sapiens mus musculus
- maximum inhibition achieved, soluble CD39 (400 ng/ml soluble CD39, 20 μM ATP): 74.9%
- inhibition of ATPase activity of soluble CD39 when spiked into negative hybridoma supernatants (antibody added to hybridoma supernatants negative for sCD39 inhibition): did not restore the ability of negative supernatants to inhibit ATPase activity of CD39
- inhibition of ATPase activity after purification from negative supernatant (antibody purified from the negative supernatant with Protein A coated beads): again able to inhibit
- inhibition of the enzymatic (ATPase) activity of soluble CD39 protein (result in words): strong inhibition; also recorded: inhibit soluble CD39; also recorded: inhibits the enzymatic activity; also recorded: highly potent at blocking the enzymatic activity

Reference: US20190218304A1, “POTENTIATING THE EFFECT OF ATP RELEASE” (INNATE PHARMA, priority 2017, published 2019)
